# Test results reported in patent publication US20110275559A1, “Long-Acting Y2 and/or Y4 Receptor Agonists” (Novo Nordisk A/S, priority 2008, published 2011).
# *1 amine or outer side, *2 acyl side, *3 side chain or, on linkers, in order; H or OH if unused. Where a SMILES comes first, the peptide text is derived from it. Where no end group is shown, it is not given here. Side-chain parts run from the residue outwards. The star is where a group is joined. C20 diacid = O=C(O)CCCCCCCCCCCCCCCCCCC(=O)*; C18 diacid = O=C(O)CCCCCCCCCCCCCCCCC(=O)*; γGlu = O=C(O)[C@H](CCC(=O)[*:2])N[*:1]; Trx = NC[C@H]1CC[C@H](C(=O)O)CC1; AEEA = NCCOCCOCC(=O)O
# T1: Y2 receptor (UniProt P49146 1-381, limits assumed)
# T1 sequence (looked up): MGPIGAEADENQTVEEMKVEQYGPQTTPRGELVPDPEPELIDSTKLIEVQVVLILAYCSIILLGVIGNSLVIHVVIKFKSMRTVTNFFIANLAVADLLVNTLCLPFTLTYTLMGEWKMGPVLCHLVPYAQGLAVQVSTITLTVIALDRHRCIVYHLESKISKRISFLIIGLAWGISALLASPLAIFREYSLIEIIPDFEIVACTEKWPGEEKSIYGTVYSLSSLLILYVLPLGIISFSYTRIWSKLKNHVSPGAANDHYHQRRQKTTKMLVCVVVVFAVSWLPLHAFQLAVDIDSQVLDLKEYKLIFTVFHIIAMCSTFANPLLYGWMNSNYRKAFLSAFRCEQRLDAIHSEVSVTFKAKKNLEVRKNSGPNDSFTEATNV
# Key:
# in vivo = conditions: Göttingen, minipig, iv, 16 nmol/kg
# Description: (§1) The mini-pigs had two central venous catheters inserted which were used for intra venous (i.v.) dosing and bloodsampling. Compound was dissolved in 50 mM K2HPO4, 0.05% tween 80, pH=8.0 to a concentration of 180 nmol/ml. The pigs were dosed with 6 nmol compound/kg body weight. […] The blood samples were collected into test tubes containing EDTA buffer for stabilization and kept on ice for max. 20 minutes before centrifugation. The centrifugation procedure to separate plasma was; 4° C., 3000 rpm for 10 minutes. Plasma were collected and immediately transferred to Micronic tubes stored at −20° C. until assayed.
# An additional mini-pig PK assay was used for measuring PK of the compounds of the invention. […] The animals had two central venous catheters inserted which were used for intra venous (i.v.) dosing and blood sampling. Compounds were dissolved in 10 mM Na2HPO4, 150 mM NaCl, 0.01% tween 80, pH=4.0 to concentrations in the range of 40 nmol/ml to 200 nmol/ml. The mini-pigs were dosed i.v. with 10 nmol compound/kg body weight, occasionally other doses such as 4 nmol/kg, 30 nmol/kg or 50 nmol/kg were administered. Each compound was dosed to 3 or 4 mini-pigs, and two compounds may be given simultaneously to the same animal. Blood were sampled pre-dose and 12 times during the first 10 hours post-dose. Blood were furthermore sampled once daily until 13 days post dosing. The blood samples were collected into test tubes containing EDTA buffer, trasylol and Val-Pyr for stabilization and kept on ice for max. 20 minutes. Samples were centrifuged at 4° C., 2000G for 10 minutes to separate plasma. Plasma were collected and immediately transferred to Micronic tubes stored at −20° C. until assayed.
# Plasma samples were analysed by LC-MS on an LTQ-Orbitrap (ThermoFisher Scientific, Bremen) to which Accela HPLC pumps and an autosampler were connected (both from ThermoFisher). […] HPLC was performed on a Jupiter Proteo column (4μ) 90A (50×2.0 mm ID). […] The flow rate was 0.3 ml/min. For analysis of plasma samples, 30 μl plasma was precipitated with 90 μl ethanol. […] The heptane phase was removed after 5 min and the remaining solution was analysed by LC-MS as described above. For construction of plasma standards, compound was spiked to plasma (minipig) at the following concentrations: 1 nM, 2 nM, 5 nM, 10 nM, 20 nM, 50 nM, 100 nM, 200 nM. The plasma standards were treated as the samples. The lower limit of quantification was estimated to 2 nM.
# Non-compartmental analysis (NCA): Plasma concentration-time profiles were analyzed by non-compartmental pharmacokinetics analysis (NCA) using WinNonlin Professional 5.0 (Pharsight Inc., Mountain View, Calif., USA). NCA was performed using the individual plasma concentration-time profiles from each animal.
# For determination of plasma concentration of the PYY and PP peptide derivative or analogues thereof the following Methods 1-4 were used.
# as §1, with “bloodsampling. The compound” for “bloodsampling. Compound”, “to an appropriate” for “to a”, “concentration (e.g. 25-500 nmol/mL).” for “concentration of 180 nmol/ml.”, “dosed intravenously (i.v.) or subcutaneously (s.c.)” for “dosed”, “with between 1 and 30” for “with 6”, “buffer (with Aprotinin 15000 KIE/mL and Val-Pyr 0.30 mM)” for “buffer”
# An additional mini-pig PK assay was used for measuring PK of the compounds of the invention. […] The animals had two central venous catheters inserted which were used for intra venous (i.v.) dosing and blood sampling.
# Y2 receptor = molecular target: T1, Y2 receptor; experiment: cell-based or functional assay
# Y4 receptor = Y4 receptor (UniProt P50391 1-375, limits assumed); experiment: cell-based or functional assay
# Y4 receptor, sequence (P50391 whole entry): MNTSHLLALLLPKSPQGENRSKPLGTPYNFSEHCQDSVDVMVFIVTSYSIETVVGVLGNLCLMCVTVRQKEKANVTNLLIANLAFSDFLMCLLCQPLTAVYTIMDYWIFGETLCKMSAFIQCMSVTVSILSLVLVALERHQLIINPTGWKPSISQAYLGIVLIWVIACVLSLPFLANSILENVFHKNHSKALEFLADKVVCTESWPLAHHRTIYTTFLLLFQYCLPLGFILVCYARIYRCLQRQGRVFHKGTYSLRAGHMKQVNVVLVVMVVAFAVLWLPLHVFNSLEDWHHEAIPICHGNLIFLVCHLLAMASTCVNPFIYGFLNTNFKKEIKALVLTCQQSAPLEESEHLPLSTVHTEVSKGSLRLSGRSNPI
Molecule,half-life (in vivo),Y2 cAMP EC50 (Y2 receptor),Y4 cAMP EC50 (Y4 receptor)
"CC[C@H](C)[C@H](NC(=O)[C@H](Cc1ccc(O)cc1)NC(=O)[C@H](CCCNC(=N)N)NC(=O)[C@H](CCCNC(=N)N)NC(=O)[C@H](CC(C)C)NC(=O)[C@H](CC(=O)O)NC(=O)[C@H](C)NC(=O)[C@H](C)NC(=O)[C@H](Cc1ccc(O)cc1)NC(=O)[C@H](CCC(N)=O)NC(=O)[C@H](C)NC(=O)[C@H](CC(C)C)NC(=O)[C@H](CCC(N)=O)NC(=O)[C@H](CCC(=O)O)NC(=O)[C@@H]1CCCN1C(=O)[C@H](CCCCNC(=O)COCCOCCNC(=O)COCCOCCNC(=O)CC[C@H](NC(=O)[C@H]1CC[C@H](CNC(=O)CCCCCCCCCCCCCCCCCCC(=O)O)CC1)C(=O)O)NC(=O)[C@H](C)NC(=O)[C@H](CC(N)=O)NC(=O)[C@H](CC(=O)O)NC(=O)CNC(=O)[C@@H]1CCCN1C(=O)[C@H](Cc1ccc(O)cc1)NC(=O)[C@@H](NC(=O)[C@@H]1CCCN1C(=O)[C@H](CCC(=O)O)NC(=O)[C@H](CC(C)C)NC(=O)[C@@H]1CCCN1C(=O)[C@H](C)N)C(C)C)C(=O)N[C@@H](CC(N)=O)C(=O)N[C@@H](CC(C)C)C(=O)N[C@@H](CC(C)C)C(=O)N[C@H](C(=O)N[C@@H](CCCNC(=N)N)C(=O)N[C@@H](CCC(N)=O)C(=O)N[C@@H](CCCNC(=N)N)C(=O)N[C@@H](Cc1ccc(O)cc1)C(=O)O)[C@@H](C)O [SEQ ID NO: 74, N-epsilon13-[2-(2-{2-[2-(2-{2-[(S)-4-Carboxy-4-({trans-4-[(19-carboxynonadecanoylamino)methyl]cyclohexanecarbonyl}amino)butyrylamino]-ethoxy}ethoxy)acetylamino]ethoxy}ethoxy)acetyl][Leu17,Lys13,Gln34]hPP1-36 acid] (H-APLEPVYPGDNAK([AEEA-AEEA-γGlu-Trx-C20 diacid])PEQLAQYAADLRRYINLLTRQRY-OH; N-terminus assumed)",8 h,–,–
PLEPVYPGDNATPEQLAQYAADLRRYINLLTRPK([AEEA-AEEA-γGlu-Trx-C20 diacid])Y (ends and bridges not checked),–,> 1000 nM,> 1000 nM
PLEPVYPGDNATPEQLAQYAADLK([AEEA-AEEA-γGlu-Trx-C20 diacid])RYINLLTRPRY (ends and bridges not checked),–,> 1000 nM,> 1000 nM
{C18 diacid-γGlu-AEEA-AEEA}-PLEPVYPGDNATPEQLAQYAADLRRYINLLTRPRY (ends and bridges not checked),–,> 1000 nM,–
"PLEPVYPGDNATPEQLAQYAADLRRYINLLTRPRY (not fully specified (N-terminus); printed as N-alfa-[2-(2-{2-[2-(2-{2-[(S)-4-Carboxy-4-({trans-4-[(19-carboxynonadecanoylamino)methyl]cyclohexanecarbonyl}amino)butyrylamino]-ethoxy}ethoxy)acetylamino]ethoxy}ethoxy)acetyl][Leu17,Leu30]hPP2-36; ends and bridges not checked)",–,> 1000 nM,–
"PLEPVYPGDNATPEQLAQYAADLRRYINLLTRPRY (ends and bridges not checked) [[Leu17,Leu30]hPP2-36]",–,> 1000 nM,0.9 nM
"APLEPVYPGDNATPEQLAQYAADLRRYINLLTRPRY (not fully specified (N-terminus); printed as N-alfa-[2-(2-{2-[2-(2-{2-[(S)-4-Carboxy-4-({trans-4-[(19-carboxynonadecanoylamino)methyl]cyclohexanecarbonyl}amino)butyrylamino]-ethoxy}ethoxy)acetylamino]ethoxy}ethoxy)acetyl][Leu17,Leu30]hPP1-36; ends and bridges not checked)",–,> 1000 nM,3.2 nM
APLEPVYPGDNAK([AEEA-AEEA-γGlu-Trx-C20 diacid])PEQLAQYAADLRRYINLLTRQRY (ends and bridges not checked),–,54 nM,18 nM
APLEPVYPGDNAK([AEEA-AEEA-γGlu-Trx-C20 diacid])PEQLAQYAADLRRYLNVLTRQRY (ends and bridges not checked),–,73 nM,7 nM
APLEPVYPGDNAK([AEEA-AEEA-γGlu-Trx-C20 diacid])PEQLAQYAADLRRYVNLLTRQRY (ends and bridges not checked),–,63 nM,65 nM
APLEPVYPGDNAK([AEEA-AEEA-γGlu-Trx-C20 diacid])PEQLAQYAADLRRYINVLTRQRY (ends and bridges not checked),–,130 nM,7 nM
APLEPVYPGNDAK([AEEA-AEEA-γGlu-Trx-C20 diacid])PEQLAQYAADLRRYINLVTRPRY (ends and bridges not checked),–,92 nM,18 nM
APLEPVYPGDNAK([AEEA-AEEA-γGlu-Trx-C20 diacid])PEQLAQYAADLRRYIQLLTRPRY (ends and bridges not checked),–,> 1000 nM,130 nM
"APLEPVYPGDNAK([AEEA-AEEA-γGlu-C18 diacid])PEQMAQYAADLRRYINMLTRPRY (ends and bridges not checked) [N-epsilon13-[2-(2-{2-[2-(2-{2-[(S)-4-Carboxy-4-(17-carboxyheptadecanoylamino)butyrylamino]ethoxy}ethoxy)acetylamino]-ethoxy}ethoxy)acetyl][Lys13]hPP(1-36) (as …, listing 1 of 2 here]",–,–,2 nM
PLEPVYPGDK([AEEA-AEEA-γGlu-Trx-C20 diacid])ATPEQLAQYAADLRRYINLLTRPRY (ends and bridges not checked),–,> 1000 nM,2 nM
"APLEPVYPGDNAK([AEEA-AEEA-γGlu-C18 diacid])PEQMAQYAADLRRYINMLTRPRY (ends and bridges not checked) [N-epsilon13-[2-(2-{2-[2-(2-{2-[(S)-4-Carboxy-4-(17-carboxyheptadecanoylamino)butyrylamino]ethoxy}ethoxy)acetylamino]-ethoxy}ethoxy)acetyl][Lys13]hPP(1-36) (as …, listing 2 of 2 here]",–,–,4 nM
PLEPVYPGK([AEEA-AEEA-γGlu-Trx-C20 diacid])NATPEQLAQYAADLRRYINLLTRQRY (ends and bridges not checked),–,25 nM,–
